Laboratory results as given in the supplement of paper PMC10126150.
± gives the standard deviation of the averaged measurements.

Tested on: ATP
Experiment: switch fluorescence ratio, 500 uM ATP over buffer (Cy3 cluster intensity, sum of 5 cycles each) (fold (ratio)); higher = stronger signal-on switching upon ATP binding; sequences stand for … in TCGTCGGCAGCGTCAGATGTGTATAAGAGACAGTTTTTTTTTTTTTTTTTTTTTTTTT…TC
Settings: aptamer strand: ATP DNA aptamer (quencher-CACCTGGGGGAGTATTGCGGAGGAAGG + anchor), 100 nM annealed; ATP concentration: 500 uM
Outline: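 Clusters with intensities outside 100-1000 RFU were excluded. The remaining Cy3-labelled switching-strand clusters on a modified Illumina MiSeq flow-cell had been annealed to 100 nM quencher-labelled ATP aptamer and imaged in selection buffer, then after 15 min with 500 uM ATP at 22 °C, for five cycles separated by NaOH stripping and re-annealing. The fluorescence ratio, averaged per switch-domain sequence, is each cluster's summed target-cycle Cy3 intensity over its summed buffer-cycle Cy3 intensity.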
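Further: ATP exposure 15 min at 22 °C before imaging.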

**Q.** For TTTTGGTCGG, which switch fluorescence ratio is on record?
**A.** The switch fluorescence ratio was 0.983 ± 0.022.

**Q.** With TATCGGTAGC as the sequence, how does the switch fluorescence ratio read?
**A.** Its switch fluorescence ratio is 1.017 ± 0.0025.

**Q.** Which switch fluorescence ratio does the source give for ACATCAGAAG here?
**A.** Its switch fluorescence ratio is 1.02 ± 0.039.

**Q.** Which switch fluorescence ratio does the source give for GAATTCAGGT here?
**A.** The switch fluorescence ratio was 0.994 ± 0.011.

**Q.** How did the switch fluorescence ratio turn out when CCCGACTTTA was run?
**A.** Its switch fluorescence ratio is 1.04 ± 0.014.

**Q.** How did the switch fluorescence ratio turn out when CGGGGTTGAC was run?
**A.** The switch fluorescence ratio was 0.9924 ± 0.0098.

**Q.** TCTGGCGTTG was tested. Which switch fluorescence ratio did it give?
**A.** Its switch fluorescence ratio is 0.983 ± 0.01.

**Q.** Which switch fluorescence ratio does the source give for ACAAGAAAGG here?
**A.** The switch fluorescence ratio was 1.01 ± 0.035.

**Q.** For TAGGAGCAGG, which switch fluorescence ratio is on record?
**A.** Its switch fluorescence ratio is 1.09 ± 0.021.

**Q.** With CCAGTTTGCA as the sequence, how does the switch fluorescence ratio read?
**A.** Its switch fluorescence ratio is 1.02 ± 0.017.

**Q.** With ATCGGGTATG as the sequence, how does the switch fluorescence ratio read?
**A.** The switch fluorescence ratio was 0.9987 ± 0.0082.

**Q.** Which switch fluorescence ratio does the source give for AAATTTGGGC here?
**A.** Its switch fluorescence ratio is 0.961 ± 0.02.

**Q.** TTTTTATGAG was tested. Which switch fluorescence ratio did it give?
**A.** The switch fluorescence ratio was 1 ± 0.036.

**Q.** How did the switch fluorescence ratio turn out when GGGTCTCAGT was run?
**A.** Its switch fluorescence ratio is 0.994 ± 0.032.

**Q.** Which switch fluorescence ratio does the source give for TGGGGGGCAA here?
**A.** The switch fluorescence ratio was 1.56 ± 1.1.

**Q.** With CCTGAGAACA as the sequence, how does the switch fluorescence ratio read?
**A.** The switch fluorescence ratio was 1.02 ± 0.031.

**Q.** Which switch fluorescence ratio does the source give for AGGTAATGGT here?
**A.** The switch fluorescence ratio was 0.998 ± 0.039.

**Q.** GAGAACGGTT was tested. Which switch fluorescence ratio did it give?
**A.** The switch fluorescence ratio was 1.03 ± 0.052.

**Q.** CGCATACGGT was tested. Which switch fluorescence ratio did it give?
**A.** The switch fluorescence ratio was 4.124 ± 0.029.

**Q.** How did the switch fluorescence ratio turn out when CGGGGAGGCG was run?
**A.** Its switch fluorescence ratio is 0.982 ± 0.079.

**Q.** How did the switch fluorescence ratio turn out when GGGAGCCTAT was run?
**A.** The switch fluorescence ratio was 1 ± 0.042.

**Q.** ATTGTAATTT was tested. Which switch fluorescence ratio did it give?
**A.** The switch fluorescence ratio was 1.01 ± 0.026.

**Q.** For TTTCTCTACG, which switch fluorescence ratio is on record?
**A.** The switch fluorescence ratio was 1.015 ± 0.0056.

**Q.** With TGGAGGGGCT as the sequence, how does the switch fluorescence ratio read?
**A.** Its switch fluorescence ratio is 0.987 ± 0.046.

**Q.** With ATTATGGTTC as the sequence, how does the switch fluorescence ratio read?
**A.** Its switch fluorescence ratio is 1 ± 0.021.

**Q.** For AGGTGCTCAT, which switch fluorescence ratio is on record?
**A.** The switch fluorescence ratio was 1.02 ± 0.036.

**Q.** Which switch fluorescence ratio does the source give for GGCTTAAGAT here?
**A.** Its switch fluorescence ratio is 0.998 ± 0.017.

**Q.** How did the switch fluorescence ratio turn out when TTCGGGGTCG was run?
**A.** Its switch fluorescence ratio is 0.985 ± 0.072.

**Q.** For AAAGGGCGTG, which switch fluorescence ratio is on record?
**A.** Its switch fluorescence ratio is 0.985 ± 0.022.

**Q.** For GGTTTCCAAT, which switch fluorescence ratio is on record?
**A.** Its switch fluorescence ratio is 1 ± 0.02.

**Q.** Which switch fluorescence ratio does the source give for TTCGGCAACG here?
**A.** Its switch fluorescence ratio is 0.997 ± 0.035.

**Q.** For TTTTCGGGAA, which switch fluorescence ratio is on record?
**A.** Its switch fluorescence ratio is 1.011 ± 0.0057.

**Q.** Which switch fluorescence ratio does the source give for TCATGTGCGG here?
**A.** The switch fluorescence ratio was 0.9639 ± 0.0022.

**Q.** AAGATTTTTT was tested. Which switch fluorescence ratio did it give?
**A.** Its switch fluorescence ratio is 1.01 ± 0.016.

**Q.** How did the switch fluorescence ratio turn out when TAAGGTGGGA was run?
**A.** The switch fluorescence ratio was 0.996 ± 0.03.

**Q.** GTAATAGGGT was tested. Which switch fluorescence ratio did it give?
**A.** Its switch fluorescence ratio is 1.01 ± 0.033.

**Q.** With AAACGAGGTC as the sequence, how does the switch fluorescence ratio read?
**A.** The switch fluorescence ratio was 1.01 ± 0.032.

**Q.** For AAGTTGAGGG, which switch fluorescence ratio is on record?
**A.** The switch fluorescence ratio was 0.975 ± 0.035.

**Q.** For TTTTAAAAAA, which switch fluorescence ratio is on record?
**A.** Its switch fluorescence ratio is 1 ± 0.026.

**Q.** For GGGGGACTGG, which switch fluorescence ratio is on record?
**A.** The switch fluorescence ratio was 0.981 ± 0.019.

**Q.** With TAAATTTTTG as the sequence, how does the switch fluorescence ratio read?
**A.** Its switch fluorescence ratio is 1.07 ± 0.097.

**Q.** With GAGCCCTTAT as the sequence, how does the switch fluorescence ratio read?
**A.** The switch fluorescence ratio was 0.9812 ± 0.0078.

**Q.** For TTGGTATCTT, which switch fluorescence ratio is on record?
**A.** The switch fluorescence ratio was 0.999 ± 0.025.

**Q.** Which switch fluorescence ratio does the source give for CTGTTTTTAT here?
**A.** Its switch fluorescence ratio is 1.01 ± 0.034.

**Q.** How did the switch fluorescence ratio turn out when TGGCCGCTTT was run?
**A.** Its switch fluorescence ratio is 1.03 ± 0.03.

**Q.** How did the switch fluorescence ratio turn out when GCCATGGACA was run?
**A.** The switch fluorescence ratio was 0.9847 ± 0.00086.

**Q.** With GAAAAGGGGT as the sequence, how does the switch fluorescence ratio read?
**A.** The switch fluorescence ratio was 1 ± 0.028.

**Q.** How did the switch fluorescence ratio turn out when GAACGTCTAC was run?
**A.** The switch fluorescence ratio was 1.28 ± 0.056.

**Q.** With GGCCGGTGAA as the sequence, how does the switch fluorescence ratio read?
**A.** The switch fluorescence ratio was 0.9843 ± 0.0045.

**Q.** CAGATAGTGT was tested. Which switch fluorescence ratio did it give?
**A.** Its switch fluorescence ratio is 1.018 ± 0.002.

**Q.** AATCGGGCAG was tested. Which switch fluorescence ratio did it give?
**A.** The switch fluorescence ratio was 1.04 ± 0.021.

**Q.** For ATCGAAAAGG, which switch fluorescence ratio is on record?
**A.** The switch fluorescence ratio was 0.998 ± 0.027.

**Q.** CGTTCTGGAG was tested. Which switch fluorescence ratio did it give?
**A.** Its switch fluorescence ratio is 1.2 ± 0.038.

**Q.** For AGGTTTAGTA, which switch fluorescence ratio is on record?
**A.** Its switch fluorescence ratio is 1.02 ± 0.015.

**Q.** ATAAAAGTCT was tested. Which switch fluorescence ratio did it give?
**A.** Its switch fluorescence ratio is 1.03 ± 0.032.

**Q.** With GTAGTAGATG as the sequence, how does the switch fluorescence ratio read?
**A.** The switch fluorescence ratio was 1.013 ± 0.0097.

**Q.** With ATTTTTACAG as the sequence, how does the switch fluorescence ratio read?
**A.** The switch fluorescence ratio was 1.03 ± 0.032.

**Q.** AACTATGGTC was tested. Which switch fluorescence ratio did it give?
**A.** The switch fluorescence ratio was 1.01 ± 0.036.

**Q.** With TTTGGCTTTC as the sequence, how does the switch fluorescence ratio read?
**A.** Its switch fluorescence ratio is 1.06 ± 0.016.

**Q.** For TATATGAGTT, which switch fluorescence ratio is on record?
**A.** Its switch fluorescence ratio is 0.963 ± 0.0099.

**Q.** GGGAAACGGG was tested. Which switch fluorescence ratio did it give?
**A.** Its switch fluorescence ratio is 0.995 ± 0.011.

**Q.** ACTATGTAGG was tested. Which switch fluorescence ratio did it give?
**A.** The switch fluorescence ratio was 0.979 ± 0.013.

**Q.** Which switch fluorescence ratio does the source give for TTCATGGATA here?
**A.** Its switch fluorescence ratio is 0.999 ± 0.066.

**Q.** For CATTGGCGTA, which switch fluorescence ratio is on record?
**A.** Its switch fluorescence ratio is 1.02 ± 0.023.

**Q.** How did the switch fluorescence ratio turn out when CACGGGGTAC was run?
**A.** The switch fluorescence ratio was 1.34 ± 0.016.

**Q.** Which switch fluorescence ratio does the source give for GGTTCTTAGG here?
**A.** Its switch fluorescence ratio is 1.01 ± 0.032.

**Q.** Which switch fluorescence ratio does the source give for ATAGTCATAC here?
**A.** Its switch fluorescence ratio is 1.25 ± 0.099.

**Q.** CGGTGTATTC was tested. Which switch fluorescence ratio did it give?
**A.** The switch fluorescence ratio was 0.988 ± 0.011.

**Q.** How did the switch fluorescence ratio turn out when CCTAATCGGT was run?
**A.** Its switch fluorescence ratio is 1.006 ± 0.0095.

**Q.** With AAATGTTGAT as the sequence, how does the switch fluorescence ratio read?
**A.** The switch fluorescence ratio was 1.03 ± 0.019.

**Q.** With AAGTTGTCCG as the sequence, how does the switch fluorescence ratio read?
**A.** Its switch fluorescence ratio is 0.964 ± 0.0091.

**Q.** How did the switch fluorescence ratio turn out when TGAAATTCTT was run?
**A.** The switch fluorescence ratio was 1.012 ± 0.0094.

**Q.** For GTAGGGGAAG, which switch fluorescence ratio is on record?
**A.** Its switch fluorescence ratio is 1.01 ± 0.017.

**Q.** For GGGTTAATGG, which switch fluorescence ratio is on record?
**A.** Its switch fluorescence ratio is 0.986 ± 0.011.

**Q.** With CAGGGATTAA as the sequence, how does the switch fluorescence ratio read?
**A.** Its switch fluorescence ratio is 0.9842 ± 0.0036.

**Q.** Which switch fluorescence ratio does the source give for GCCGGGACGG here?
**A.** The switch fluorescence ratio was 0.965 ± 0.022.

**Q.** GGTGTGATGG was tested. Which switch fluorescence ratio did it give?
**A.** The switch fluorescence ratio was 0.9512 ± 0.0085.
